Patent US20250114463A1, “LIVER-TARGETED DRUG AND USE THEREOF” (HANMI PHARM. CO., LTD., priority 2021, published 2025)
Bridges are numbered along the chain shown (N, C = ends). Where no end group is shown, it is not given here. [ ]: non-standard residue; d: D form. The star is where a group is joined. Acetyl(2-(4-imidazolyl)) = O=C(Cc1c[nH]cn1)*; Aib = CC(C)(N)C(=O)O

Key:
Assay in all cases: cell-based or functional assay
[1] = target: human GLP-1 receptor (human, UniProt P43220 24-463)
[2] = target: human GCG receptor (human, UniProt P47871 26-477)
[3] = target: T1, human GIP receptor (human, UniProt P48546 22-466)
T1 sequence (looked up): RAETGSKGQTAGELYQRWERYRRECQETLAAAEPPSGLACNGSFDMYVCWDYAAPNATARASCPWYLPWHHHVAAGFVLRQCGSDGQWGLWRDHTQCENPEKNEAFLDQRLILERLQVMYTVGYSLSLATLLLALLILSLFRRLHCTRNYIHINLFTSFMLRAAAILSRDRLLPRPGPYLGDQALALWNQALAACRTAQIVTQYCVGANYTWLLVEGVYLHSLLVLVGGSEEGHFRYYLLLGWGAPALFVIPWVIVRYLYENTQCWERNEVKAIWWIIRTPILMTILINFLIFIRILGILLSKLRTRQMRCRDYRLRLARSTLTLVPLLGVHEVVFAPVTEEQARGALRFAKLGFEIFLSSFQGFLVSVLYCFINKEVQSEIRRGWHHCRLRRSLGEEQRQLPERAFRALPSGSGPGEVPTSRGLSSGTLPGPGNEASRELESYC

Sequence of human GCG receptor (P47871 26-477): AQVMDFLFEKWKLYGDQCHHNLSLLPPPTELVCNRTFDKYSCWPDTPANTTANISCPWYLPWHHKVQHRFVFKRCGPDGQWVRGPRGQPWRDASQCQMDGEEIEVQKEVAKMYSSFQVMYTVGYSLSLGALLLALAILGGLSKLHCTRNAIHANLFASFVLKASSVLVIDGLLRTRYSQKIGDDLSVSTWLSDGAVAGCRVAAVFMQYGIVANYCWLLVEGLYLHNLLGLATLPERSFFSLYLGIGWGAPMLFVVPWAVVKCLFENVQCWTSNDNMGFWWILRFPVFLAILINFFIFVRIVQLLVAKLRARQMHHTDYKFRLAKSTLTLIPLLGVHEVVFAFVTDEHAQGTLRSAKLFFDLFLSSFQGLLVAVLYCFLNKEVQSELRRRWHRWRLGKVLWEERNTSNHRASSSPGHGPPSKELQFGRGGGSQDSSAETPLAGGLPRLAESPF

| Binder | in vitro Activity Compared to Native Peptide (%), vs GLP-1 [1] [%] | in vitro Activity Compared to Native Peptide (%), vs Glucagon [2] [%] | in vitro Activity Compared to Native Peptide (%), vs GIP [3] [%] |
| --- | --- | --- | --- |
| [Acetyl(2-(4-imidazolyl))][Aib]QGTFTSDYSICMDEIHQKDFVNWLLNTK (bridge 16-20; not fully specified (C-terminus)) [triple agonist of SEQ ID NO: 49] | 29.8 | < 0.1 | 3.3 |
| H[Aib]QGTFTSDYSKYLDEKRQKEFVQWLLDTC (bridge 16-20; not fully specified (C-terminus)) [triple agonist of SEQ ID NO: 52] | 44.1 | 7.5 | 0.3 |
| HXQGTFTSDKSKYLDECAAQDFVQWLLDGGPSSGAPPPS (HELM PEPTIDE1{H.[Aib].Q.G.T.F.T.S.D.K.S.K.Y.L.D.E.C.A.A.Q.D.F.V.Q.W.L.L.D.G.G.P.S.S.G.A.P.P.P.S.[am]}$$$$V2.0; N-terminus assumed; SMILES CC(C)C[C@H](NC(=O)[C@H](CC(C)C)NC(=O)[C@H](Cc1c[nH]c2ccccc12)NC(=O)[C@H](CCC(N)=O)NC(=O)[C@@H](NC(=O)[C@H](Cc1ccccc1)NC(=O)[C@H](CC(=O)O)NC(=O)[C@H](CCC(N)=O)NC(=O)[C@H](C)NC(=O)[C@H](C)NC(=O)[C@H](CS)NC(=O)[C@H](CCC(=O)O)NC(=O)[C@H](CC(=O)O)NC(=O)[C@H](CC(C)C)NC(=O)[C@H](Cc1ccc(O)cc1)NC(=O)[C@H](CCCCN)NC(=O)[C@H](CO)NC(=O)[C@H](CCCCN)NC(=O)[C@H](CC(=O)O)NC(=O)[C@H](CO)NC(=O)[C@@H](NC(=O)[C@H](Cc1ccccc1)NC(=O)[C@@H](NC(=O)CNC(=O)[C@H](CCC(N)=O)NC(=O)C(C)(C)NC(=O)[C@@H](N)Cc1c[nH]cn1)[C@@H](C)O)[C@@H](C)O)C(C)C)C(=O)N[C@@H](CC(=O)O)C(=O)NCC(=O)NCC(=O)N1CCC[C@H]1C(=O)N[C@@H](CO)C(=O)N[C@@H](CO)C(=O)NCC(=O)N[C@@H](C)C(=O)N1CCC[C@H]1C(=O)N1CCC[C@H]1C(=O)N1CCC[C@H]1C(=O)N[C@@H](CO)C(N)=O) [triple agonist of SEQ ID NO: 41] | 34.3 | < 0.1 | < 0.1 |
| H[Aib]EGTFTSDYSIAMDEIHQKDFVDWLLAEC (bridge 16-20; not fully specified (C-terminus)) [triple agonist of SEQ ID NO: 54] | 30.6 | 1.4 | 0.1 |
| H[Aib]QGTFTSDYSKYLDEKRAKEFVQWLLDHHPSSGQPPPSC-NH2 (bridge 16-20) [triple agonist of SEQ ID NO: 50] | 67.4 | 50.5 | 2.7 |
| H[Aib]EGTFTSDYSIAMDEIHQKDFVNWLLAQC (bridge 16-20; not fully specified (C-terminus)) [triple agonist of SEQ ID NO: 53] | 161 | 8.4 | 1.3 |
| Y[Aib]QGTFTSDYSKYLDEKRAKEFVQWLLDHHPSSGQPPPSC-NH2 (bridge 16-20) [triple agonist of SEQ ID NO: 42] | 33.9 | 206 | 7.8 |
| Y[Aib]QGTFTSDYSKYLDEKRAKEFVQWLLDHHCSSGQPPPS-NH2 (bridge 16-20) [triple agonist of SEQ ID NO: 43] | 12.6 | 88.4 | 3.7 |
| H[Aib]QGTFTSDYSKYLDEKRQKEFVQWLLNTC (bridge 16-20; not fully specified (C-terminus)) [triple agonist of SEQ ID NO: 51] | 14.4 | 2 | 0.1 |
| HGQGTFTSDCSKQLDGQAAQEFVAWLLAGGPSSGAPPPS (not fully specified (C-terminus)) [triple agonist of SEQ ID NO: 44] | 1.3 | < 0.1 | < 0.1 |
| HGQGTFTSDCSKYLDGQRAQDFVNWLLAGGPSSGAPPPS (not fully specified (C-terminus)) [triple agonist of SEQ ID NO: 48] | 1.5 | < 0.1 | < 0.1 |
| HGQGTFTSDCSKYLDEQHAQEFVAWLLAGGPSSGAPPPS (not fully specified (C-terminus)) [triple agonist of SEQ ID NO: 46] | 1.4 | < 0.1 | < 0.1 |
| HGQGTFTSDCSKYLDGQRAQEFVAWLLAGGPSSGAPPPS (not fully specified (C-terminus)) [triple agonist of SEQ ID NO: 47] | 2.4 | < 0.1 | < 0.1 |
| HGQGTFTSDCSKYMDGQAAQDFVAWLLAGGPSSGAPPPS (not fully specified (C-terminus)) [triple agonist of SEQ ID NO: 45] | 6.6 | < 0.1 | < 0.1 |
| H[Aib]QGTFTSDVSSYLLGQQQKEFIAWLVKGGGPSSGAPPPSC-NH2 [triple agonist of SEQ ID NO: 5] | 42.1 | < 0.1 | < 0.1 |
